The values that follow come from paper PMC2646082.

Where two headings read alike, the source gives them in different places.

What all share (assay): ITC
Data set [1] concerns the target T1, HIV-1 nucleocapsid protein (NC) (HIV-1 NL4-3, UniProt P12493 378-432).
The target in data set [2] is T1, HIV-1 nucleocapsid protein (NC). The source holds these as a separate data set.
For data set [3] the target is unchanged. The source holds these as a separate data set.
The target is the same in data set [4]. This is another data set of the same source.
For data set [5] the target is unchanged. This is another data set of the same source.
Data set [6] has the same target. This is another data set of the same source.
For data set [7] the target is unchanged. The source holds these as a separate data set.
For data set [8] the target is unchanged. The source holds these as a separate data set.

A word on the Kd: it is the equilibrium constant for the complex coming apart. A lower Kd goes with higher affinity. In data set [1], UUUGCCCGUCU (ssRNA) [U5UGG (G106U)] registered a Kd of 267 ± 20 nM.
UUUUCCCGUCU (ssRNA) [U5UUG (G106U;G108U)] registered a dissociation constant (Kd) in data set [2] of 547 ± 55 nM.
As for UUUUCCCUUCU (ssRNA) [U5UUU (G106U;G108U;G112U)], in data set [3], the binding result is reported as “no binding”.
Take UUUGCCCUUCU (ssRNA) [U5UGU (G106U;G112U)]: in data set [4], the dissociation constant (Kd) was 812 ± 91 nM.
Regarding UGUUCCCGUCU (ssRNA) [U5GUG (G108U)], binding in data set [5] was characterised by a dissociation constant (Kd) of 239 ± 20 nM.
In turn, UGUGCCCUUCU (ssRNA) [U5GGU (G112U)] returned a dissociation constant (Kd) in data set [6] of 81 ± 8 nM.
UGUUCCCUUCU (ssRNA) [U5GUU (G108U;G112U)] registered a Kd in data set [7] of 880 ± 91 nM.
For the molecule UGUGCCCGUCU (ssRNA) [U5 (U5GGG, native)], the Kd in data set [8] amounted to 122 ± 10 nM.
